*1 amine or outer side, *2 acyl side, *3 side chain or, on linkers, in order; H or OH if unused. Where no end group is shown, it is not given here. Side-chain parts run from the residue outwards. [ ]: non-standard residue; d: D form. The star is where a group is joined. αMePhe(2-F) = C[C@](N)(Cc1ccccc1F)C(=O)O; γGlu = O=C(O)[C@H](CCC(=O)[*:2])N[*:1]; C14 diacid = O=C(O)CCCCCCCCCCCCC(=O)*; αMeY = C[C@](N)(Cc1ccc(O)cc1)C(=O)O; αMeL = CC(C)C[C@](C)(N)C(=O)O; Orn = NCCC[C@H](N)C(=O)O; AEEA = NCCOCCOCC(=O)O; Aib = CC(C)(N)C(=O)O
Legend:
Assay in all cases: cell-based or functional assay
human GIP receptor [1] = molecular target: T1, human GIP receptor (human, UniProt P48546 22-466)
T1 sequence (looked up): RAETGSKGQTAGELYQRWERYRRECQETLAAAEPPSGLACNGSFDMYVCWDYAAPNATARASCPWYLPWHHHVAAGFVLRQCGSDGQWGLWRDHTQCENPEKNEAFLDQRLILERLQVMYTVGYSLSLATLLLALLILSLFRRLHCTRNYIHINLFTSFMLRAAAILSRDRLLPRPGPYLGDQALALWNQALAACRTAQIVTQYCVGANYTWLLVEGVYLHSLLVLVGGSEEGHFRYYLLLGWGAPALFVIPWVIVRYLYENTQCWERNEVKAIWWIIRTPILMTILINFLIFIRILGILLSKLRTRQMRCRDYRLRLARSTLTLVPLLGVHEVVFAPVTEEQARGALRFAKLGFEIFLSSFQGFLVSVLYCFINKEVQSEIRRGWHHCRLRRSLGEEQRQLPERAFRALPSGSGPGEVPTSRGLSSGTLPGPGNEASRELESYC

human glucagon receptor = human glucagon receptor (human, UniProt P47871 26-477)
human GLP-1 receptor [2] = molecular target: human GLP-1 receptor (human, UniProt P43220 24-463)
human GLP-1 receptor [3] = molecular target: human GLP-1 receptor (human, UniProt P43220 24-463); remark: listed apart in the source
human GIP receptor [4] = molecular target: T2, human GIP receptor (human, UniProt P48546 22-466); remark: listed apart in the source
T2 sequence (looked up): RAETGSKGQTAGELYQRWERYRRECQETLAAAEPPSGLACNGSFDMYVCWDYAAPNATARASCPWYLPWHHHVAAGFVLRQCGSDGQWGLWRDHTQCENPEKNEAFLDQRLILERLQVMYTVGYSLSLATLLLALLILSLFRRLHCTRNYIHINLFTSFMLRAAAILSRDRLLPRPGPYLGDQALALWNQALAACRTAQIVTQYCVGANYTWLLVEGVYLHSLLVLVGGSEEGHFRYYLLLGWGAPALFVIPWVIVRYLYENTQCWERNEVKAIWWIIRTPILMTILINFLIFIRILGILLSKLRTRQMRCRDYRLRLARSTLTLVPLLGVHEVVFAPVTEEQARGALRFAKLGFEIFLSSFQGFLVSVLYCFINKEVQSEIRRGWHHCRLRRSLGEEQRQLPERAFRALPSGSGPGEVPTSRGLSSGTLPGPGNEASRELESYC

| Binder | EC50, cAMP (human GIP receptor [1]) [nM] | EC50, cAMP (human glucagon receptor) [nM] | EC50, cAMP (human GLP-1 receptor [2]) [nM] | cAMP EC50 (1.0% HSA) (human GLP-1 receptor [3]) [nM] | cAMP EC50 (1.0% HSA) (human GIP receptor [4]) [nM] | cAMP Emax (1.0% HSA) (human GIP receptor [4]) [%] | Emax, cAMP (human GLP-1 receptor [2]) [%] |
| --- | --- | --- | --- | --- | --- | --- | --- |
| YXEGTXTSDXSIXLDXKAQXEFIXXLIEGGKSSGAPPPS (Aib2, αMeF(2F)6, 4Pal10, αMeL13, Orn16, Aib20, D-Glu24, αMeY25, K17 and K31: K(AEEA3-(γ-Glu)-CO-(CH2)14-CH3), C-terminal NH2) [Example 31] | 0.00157 | > 9950 |  |  |  |  |  |
| YXEGTXTSDXSIXLDXKAQXEFIXXLIEGGKSSGAPPPS (Aib2, αMeF(2F)6, 4Pal10, αMeL13, Orn16, Aib20, D-Glu24, αMeY25, K17 and K31: K(AEEA3-(γ-Glu)-CO-(CH2)12-CO2H), C-terminal NH2) [Example 30] | 0.0175 | > 9950 | 2.27 |  |  |  |  |
| YXEGTXTSDXSIXLDXKAQXEFIXXLIEGGKSSGAPPPS (Aib2, αMeF(2F)6, 4Pal10, αMeL13, Orn16, Aib20, D-Glu24, αMeY25, K17 and K31: K((εK)-(γ-Glu)-(γ-Glu)-CO-(CH2)12-CO2H), C-terminal NH2) [Example 39] | 0.0238 | > 9950 | 0.358 |  |  |  |  |
| YXEGTXTSDXXIXLDXQAQXEFIKXLIKGGPSSGAPPPS (Y-Aib-EGT-αMeF(2F)-TSD-4Pal-Aib-I-αMeL-LD-Orn-QAQ-Aib-EFIK((2-[2-(2-Amino-ethoxy)-ethoxy]-acetyl)2-(γ-Glu)-(10-(4-carboxyphenoxy)decanoyl))-αMeY-LIK((2-[2-(2-Amino-ethoxy)-ethoxy]-acetyl)2-(γ-Glu)-(10-(4-carboxyphenoxy)decanoyl))GGPSSGAPPPS-NH2) [Example 403] |  |  |  | 7.31 | 0.711 | 91.7 |  |
| YXEGTXTSDXSIXLDXKGQXEFIXXLIEGGKSSGAPPPS (Aib2, αMeF(2F)6, 4Pal10, αMeL13, Orn16, Aib20, D-Glu24, αMeY25, K17 and K31: K(AEEA2-(γ-Glu)-CO-(CH2)12-CO2H), C-terminal NH2) [Example 102] |  | > 9950 | 19.1 |  |  |  |  |
| YXEGTXTSDXSIXLDXKAQXEFIXXLIEGGKSSGAPPPS (Aib2, αMeF(2F)6, 4Pal10, αMeL13, Orn16, Aib20, D-Glu24, αMeY25, K17 and K31: K(AEEA2-(10-(4-carboxyphenoxy)decanoyl)), C-terminal NH2) [Example 10] | 0.0106 | > 9950 |  |  |  |  |  |
| YXEGTXTSDXSIXLDXKAQXEFIKXLIEGGPSSGAPPPS (Aib2, αMeF(2F)6, 4Pal10, αMeL13, Orn16, Aib20, αMeY25, K17 and K24: K(AEEA2-(γ-Glu)-CO-(CH2)14-CH3), C-terminal NH2) [Example 22] | 0.00656 | > 9950 | 0.0153 |  |  |  |  |
| YXEGTXTSDXSIXLDXKAQXEFIXKLIEGGPSSGAPPPS (Aib2, αMeF(2F)6, 4Pal10, αMeL13, Orn16, Aib20, D-Glu24, K17 and K25: K(AEEA2-(γ-Glu)-CO-(CH2)14-CH3), C-terminal NH2) [Example 32] | 0.002 | > 9950 | 0.0063 |  |  |  | 119 |
| YXEGTXTSDXSIXLDXKAQXEFIXXLIEGGKSSGAPPPS (Aib2, αMeF(2F)6, Bzt10, αMeL13, Orn16, Aib20, D-Glu24, αMeY25, K17 and K31: K(AEEA2-(γ-Glu)-CO-(CH2)12-CO2H), C-terminal NH2) [Example 142] | 0.0317 | > 9950 |  |  |  |  |  |
| YXEGTXTSDXSIXLDXKAQXEFIXXLIEGKPSSGAPPPS (Aib2, αMeF(2F)6, 4Pal10, αMeL13, Orn16, Aib20, D-Glu24, αMeY25, K17 and K30: K(AEEA2-(γ-Glu)-CO-(CH2)14-CH3), C-terminal NH2) [Example 24] | 0.00266 | > 9950 | 0.0063 |  |  |  |  |
| YXEGTXTSDXSIXLDXKAQXEFIXXLIEGGKSSGAPPPS (Aib2, αMeF(2F)6, 4Pal10, αMeL13, Orn16, Aib20, D-Glu24, αMeY25, K17 and K31: K(AEEA2-(εK)-CO-(CH2)12-CO2H), C-terminal NH2) [Example 33] | 0.00957 | > 9950 | 0.37 |  |  |  |  |
| YXEGTXTSDXSIXLDXIAQXEFIXXLIKGGKSSGAPPPS (Aib2, αMeF(2F)6, 4Pal10, αMeL13, Orn16, Aib20, D-Glu24, αMeY25, K28 and K31: K(AEEA2-(γ-Glu)-CO-(CH2)14-CH3), C-terminal NH2) [Example 26] | 0.0218 | > 9950 | 0.0711 |  |  |  |  |
| YXEGTXTSDXSIXLDXKAQXEFIXXLIEGGKSSGAPPPS (Aib2, αMeF(2F)6, 4Pal10, αMeL13, Orn16, Aib20, D-Glu24, αMeY25, K17 and K31: K((εK)-(γ-Glu)-CO-(CH2)12-CO2H), C-terminal NH2) [Example 38] | 0.0155 | > 9950 | 0.225 |  |  |  |  |
| YXEGTXTSDXSIXLDXKAQXEFIXXLIEGGKSSGAPPPS (Aib2, αMeF(2F)6, 4Pal10, αMeL13, Orn16, Aib20, D-Glu24, αMeY25, K17 and K31: K(AEEA2-(γ-Glu)-(10-(4-carboxyphenoxy)decanoyl)), C-terminal NH2) [Example 2] | 0.0154 | > 9950 | 1.14 |  |  |  |  |
| YXEGTXTSDXGIXLDXKAQXEFIXXLIEGGKSSGAPPPS (Aib2, αMeF(2F)6, 4Pal10, αMeL13, Orn16, Aib20, D-Glu24, αMeY25, K17 and K31: K(AEEA2-(γ-Glu)-CO-(CH2)12-CO2H), C-terminal NH2) [Example 100] |  | > 9950 | 11.4 |  |  |  | 111 |
| YXEGTXTSDXXIXLDXQAQXEFIKXLIKGGPSSGAPPPS (Y-Aib-EGT-αMeF(2F)-TSD-4Pal-Aib-I-αMeL-LD-Orn-QAQ-Aib-EFIK((2-[2-(2-Amino-ethoxy)-ethoxy]-acetyl)3-(γ-Glu)-CO-(CH2)12-CO2H)-αMeY-LIK((2-[2-(2-Amino-ethoxy)-ethoxy]-acetyl)3-(γ-Glu)-CO-(CH2)12-CO2H)GGPSSGAPPPS-NH2) [Example 460] |  |  |  | 6.31 | 0.506 |  |  |
| Y[Aib]EGT[αMePhe(2-F)]TSDV[Aib]I[αMeL]LD[Orn]IAQ[Aib]EFIK([AEEA-γGlu-C14 diacid])[αMeY]LIK([AEEA-γGlu-C14 diacid])GGPSSGAPPPS-NH2 (N-terminus assumed; SMILES CC[C@H](C)[C@H](NC(=O)[C@H](CCCN)NC(=O)[C@H](CC(=O)O)NC(=O)[C@H](CC(C)C)NC(=O)[C@](C)(CC(C)C)NC(=O)[C@@H](NC(=O)C(C)(C)NC(=O)[C@@H](NC(=O)[C@H](CC(=O)O)NC(=O)[C@H](CO)NC(=O)[C@@H](NC(=O)[C@](C)(Cc1ccccc1F)NC(=O)[C@@H](NC(=O)CNC(=O)[C@H](CCC(=O)O)NC(=O)C(C)(C)NC(=O)[C@@H](N)Cc1ccc(O)cc1)[C@@H](C)O)[C@@H](C)O)C(C)C)[C@@H](C)CC)C(=O)N[C@@H](C)C(=O)N[C@@H](CCC(N)=O)C(=O)NC(C)(C)C(=O)N[C@@H](CCC(=O)O)C(=O)N[C@@H](Cc1ccccc1)C(=O)N[C@H](C(=O)N[C@@H](CCCCNC(=O)COCCOCCNC(=O)CC[C@H](NC(=O)CCCCCCCCCCCCC(=O)O)C(=O)O)C(=O)N[C@@](C)(Cc1ccc(O)cc1)C(=O)N[C@@H](CC(C)C)C(=O)N[C@H](C(=O)N[C@@H](CCCCNC(=O)COCCOCCNC(=O)CC[C@H](NC(=O)CCCCCCCCCCCCC(=O)O)C(=O)O)C(=O)NCC(=O)NCC(=O)N1CCC[C@H]1C(=O)N[C@@H](CO)C(=O)N[C@@H](CO)C(=O)NCC(=O)N[C@@H](C)C(=O)N1CCC[C@H]1C(=O)N1CCC[C@H]1C(=O)N1CCC[C@H]1C(=O)N[C@@H](CO)C(N)=O)[C@@H](C)CC)[C@@H](C)CC) [Example 400] |  |  |  | 107 | 16.7 |  |  |
